Data set [1] deals with the molecule itself. The experiment in a line: SEC; 16/60 Sephacryl S-300 HR gel-filtration column; molecular weight under native condition calculated from the retention volume (Kav) against a calibration curve.
Substrate in the data set “purified protein”: O=c1[nH]c(=O)c2[nH]c(=O)[nH]c2[nH]1
The experiment in a line: purified protein. It is filed as biochemical, Latimeria menadoensis. To be noted: 50 mM sodium borate pH 8.0, 30 °C, 15-120 µM uric acid.

B1: L. menadoensis uricase, wild type (LM-UOX-6His) (enzyme, UniProt M3XGK0 1-306, looked up)
chain: MSHYVSSTRFQKDTDVEFVRTGYGKNIVKVLHIKREGKTHYIKEVEVAVQLALKSRKDYLYGDNSDIIPTDTMKNTVHALAKLKGINTIEEFAMDICEHFLTSFNHVTRANTYVEEAPWKRMEKNEVKHVHAFIYSPEATRFCEVEHHQNEPPVVHSGIKDMKVLKTTQSGFEGFVKDRFTTLPEVTDRCFSTVIYSKWLYNRSKNIDFDAAWKTVYDVIIEKFAGPYECGEYSPSVQKTLYETQVLCLNRVPEIEEVEIVMPNKHYFTIDMSKIGIVNKDEVLLPLDNPSGNITGTVRRKAHSKL
notes: Uricase (urate oxidase) of Latimeria menadoensis, 306 amino acids; synthetic cDNA amplified with primers from the start codon to the last codon (no stop codon), cloned NdeI/XhoI into pET20b(+); The His6 tag is joined to the protein by two residues from the XhoI site; also called WT; WT LM-UOX; source: E. coli BL21(DE3), purified (Ni-NTA IMAC, gel filtration); not shown: His6, C-terminal, kept
With B1, the “stoichiometry N” value in data set [1] is 4. For the same protein, in the data set “purified protein”, the Michaelis-Menten constant (Km) was determined as 18.43 ± 0.4 µM, the kcat amounted to 29.9 ± 0.3 s⁻¹ and the kcat/Km is 1.62e+06 M⁻¹ s⁻¹.

B2: L. menadoensis uricase N289C mutant (enzyme, UniProt M3XGK0 1-306, looked up)
chain: MSHYVSSTRFQKDTDVEFVRTGYGKNIVKVLHIKREGKTHYIKEVEVAVQLALKSRKDYLYGDNSDIIPTDTMKNTVHALAKLKGINTIEEFAMDICEHFLTSFNHVTRANTYVEEAPWKRMEKNEVKHVHAFIYSPEATRFCEVEHHQNEPPVVHSGIKDMKVLKTTQSGFEGFVKDRFTTLPEVTDRCFSTVIYSKWLYNRSKNIDFDAAWKTVYDVIIEKFAGPYECGEYSPSVQKTLYETQVLCLNRVPEIEEVEIVMPNKHYFTIDMSKIGIVNKDEVLLPLDCPSGNITGTVRRKAHSKL
notes: Uricase (urate oxidase) of Latimeria menadoensis, 306 amino acids, same construct as the wild type (pET20LM-UOX) with N289C by site-directed mutagenesis; His6 tag joined by two residues from the XhoI site, as in m1; source: E. coli BL21(DE3), purified (Ni-NTA IMAC, gel filtration); not shown: His6, C-terminal, kept
For the protein B2, the “stoichiometry N” value in data set [1] was 4. In addition, in the data set “purified protein”, the Km was 30.46 ± 0.1 µM, the kcat is 34.06 ± 0.1 s⁻¹ and the specificity constant (kcat/Km) was determined as 1.12e+06 M⁻¹ s⁻¹.

B3: L. menadoensis uricase I27C/N289C mutant (enzyme, UniProt M3XGK0 1-306, looked up)
chain: MSHYVSSTRFQKDTDVEFVRTGYGKNCVKVLHIKREGKTHYIKEVEVAVQLALKSRKDYLYGDNSDIIPTDTMKNTVHALAKLKGINTIEEFAMDICEHFLTSFNHVTRANTYVEEAPWKRMEKNEVKHVHAFIYSPEATRFCEVEHHQNEPPVVHSGIKDMKVLKTTQSGFEGFVKDRFTTLPEVTDRCFSTVIYSKWLYNRSKNIDFDAAWKTVYDVIIEKFAGPYECGEYSPSVQKTLYETQVLCLNRVPEIEEVEIVMPNKHYFTIDMSKIGIVNKDEVLLPLDCPSGNITGTVRRKAHSKL
notes: His6 tag joined by two residues from the XhoI site, as in m1; which cysteines pair (C27 with C289 of the other subunit of a dimer) is a prediction only; source: E. coli BL21(DE3), purified (Ni-NTA IMAC, gel filtration); not shown: His6, C-terminal, kept
Consider B3, for which, in data set [1], the “stoichiometry N” value is 4. Besides, in the data set “purified protein”, the Km is on record as 35.39 ± 0.1 µM, the kcat turned out to be 32.58 ± 0.2 s⁻¹ and the specificity constant (kcat/Km) amounted to 920000 M⁻¹ s⁻¹.

B4: L. menadoensis uricase D288C mutant (enzyme, UniProt M3XGK0 1-306, looked up)
chain: MSHYVSSTRFQKDTDVEFVRTGYGKNIVKVLHIKREGKTHYIKEVEVAVQLALKSRKDYLYGDNSDIIPTDTMKNTVHALAKLKGINTIEEFAMDICEHFLTSFNHVTRANTYVEEAPWKRMEKNEVKHVHAFIYSPEATRFCEVEHHQNEPPVVHSGIKDMKVLKTTQSGFEGFVKDRFTTLPEVTDRCFSTVIYSKWLYNRSKNIDFDAAWKTVYDVIIEKFAGPYECGEYSPSVQKTLYETQVLCLNRVPEIEEVEIVMPNKHYFTIDMSKIGIVNKDEVLLPLCNPSGNITGTVRRKAHSKL
notes: Uricase (urate oxidase) of Latimeria menadoensis, 306 amino acids, same construct as the wild type (pET20LM-UOX) with D288C by site-directed mutagenesis; His6 tag joined by two residues from the XhoI site, as in m1; source: E. coli BL21(DE3), purified (Ni-NTA IMAC, gel filtration); not shown: His6, C-terminal, kept
For B4, in data set [1], the “stoichiometry N” value was 4. In “purified protein”, the Michaelis constant (Km) is on record as 189.65 ± 0.2 µM, the catalytic constant (kcat) was 65.07 ± 0.3 s⁻¹ and the kcat/Km worked out at 340000 M⁻¹ s⁻¹.

B5: L. menadoensis uricase A132C/A225C mutant (enzyme, UniProt M3XGK0 1-306, looked up)
chain: MSHYVSSTRFQKDTDVEFVRTGYGKNIVKVLHIKREGKTHYIKEVEVAVQLALKSRKDYLYGDNSDIIPTDTMKNTVHALAKLKGINTIEEFAMDICEHFLTSFNHVTRANTYVEEAPWKRMEKNEVKHVHCFIYSPEATRFCEVEHHQNEPPVVHSGIKDMKVLKTTQSGFEGFVKDRFTTLPEVTDRCFSTVIYSKWLYNRSKNIDFDAAWKTVYDVIIEKFCGPYECGEYSPSVQKTLYETQVLCLNRVPEIEEVEIVMPNKHYFTIDMSKIGIVNKDEVLLPLDNPSGNITGTVRRKAHSKL
notes: His6 tag joined by two residues from the XhoI site, as in m1; source: E. coli BL21(DE3), purified (Ni-NTA IMAC, gel filtration); not shown: His6, C-terminal, kept
For the protein B5, the “stoichiometry N” value in data set [1] is 4. In addition, in “purified protein”, the Km was determined as 39.19 ± 0.5 µM, the kcat was determined as 58.2 ± 0.6 s⁻¹ and the kcat/Km stood at 1.49e+06 M⁻¹ s⁻¹.

B6: L. menadoensis uricase S136C mutant (enzyme, UniProt M3XGK0 1-306, looked up)
chain: MSHYVSSTRFQKDTDVEFVRTGYGKNIVKVLHIKREGKTHYIKEVEVAVQLALKSRKDYLYGDNSDIIPTDTMKNTVHALAKLKGINTIEEFAMDICEHFLTSFNHVTRANTYVEEAPWKRMEKNEVKHVHAFIYCPEATRFCEVEHHQNEPPVVHSGIKDMKVLKTTQSGFEGFVKDRFTTLPEVTDRCFSTVIYSKWLYNRSKNIDFDAAWKTVYDVIIEKFAGPYECGEYSPSVQKTLYETQVLCLNRVPEIEEVEIVMPNKHYFTIDMSKIGIVNKDEVLLPLDNPSGNITGTVRRKAHSKL
notes: Uricase (urate oxidase) of Latimeria menadoensis, 306 amino acids, same construct as the wild type (pET20LM-UOX) with S136C by site-directed mutagenesis; His6 tag joined by two residues from the XhoI site, as in m1; source: E. coli BL21(DE3), purified (Ni-NTA IMAC, gel filtration); not shown: His6, C-terminal, kept
On to B6, for which the “stoichiometry N” value in data set [1] was 4. Besides, in “purified protein”, the Km amounted to 15.28 ± 0.1 µM, the turnover number (kcat) stood at 22.49 ± 0.1 s⁻¹ and the catalytic efficiency (kcat/Km) is 1.47e+06 M⁻¹ s⁻¹.

The term stoichiometry N denotes the number of molecules, sites or subunits per partner or assembly. By Km is commonly meant the substrate concentration at which the rate is half of its maximum. A word on the kcat: it is the maximal rate divided by the concentration of active sites. What is called kcat/Km is the second-order rate constant that governs catalysis at low substrate concentration.

Values taken from publication PMC6471336, “Production and Characterization of Recombinant Wild Type Uricase from Indonesian Coelacanth (L. menadoensis) and Improvement of Its Thermostability by In Silico Rational Design and Disulphide Bridges Engineering” (International Journal of Molecular Sciences, 2019).
